The values that follow come from patent publication US20240425882.

The data set has as its target T1, microtubule-associated protein EB2 (endogenous, mouse brain), Q8R001.
T1 chain: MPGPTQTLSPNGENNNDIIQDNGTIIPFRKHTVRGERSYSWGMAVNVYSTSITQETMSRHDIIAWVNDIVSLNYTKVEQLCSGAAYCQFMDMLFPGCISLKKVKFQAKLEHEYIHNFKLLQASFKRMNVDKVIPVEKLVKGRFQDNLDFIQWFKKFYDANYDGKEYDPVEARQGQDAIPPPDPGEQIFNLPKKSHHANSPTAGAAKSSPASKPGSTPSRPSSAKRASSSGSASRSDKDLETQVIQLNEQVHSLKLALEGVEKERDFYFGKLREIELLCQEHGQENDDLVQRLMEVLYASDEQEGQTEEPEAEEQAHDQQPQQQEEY

B1: human CDKL5, isoform 4 (protein)
chain: MKIPNIGNVMNKFEILGVVGEGAYGVVLKCRHKETHEIVAIKKFKDSEENEEVKETTLRELKMLRTLKQENIVELKEAFRRRGKLYLVFEYVEKNMLELLEEMPNGVPPEKVKSYIYQLIKAIHWCHKNDIVHRDIKPENLLISHNDVLKLCDFGFARNLSEGNNANYTEYVATRWYRSPELLLGAPYGKSVDMWSVGCILGELSDGQPLFPGESEIDQLFTIQKVLGPLPSEQMKLFYSNPRFHGLRFPAVNHPQSLERRYLGILNSVLLDLMKNLLKLDPADRYLTEQCLNHPTFQTQRLLDRSPSRNQAGKSTALQSHHRSNSKDIQNLSVGLPRADEGLPANESFLNGNLAGASLSPLHTKTYQASSQPGSTSKDLTNNNIPHLLSPKEAKSKTEFDFNIDPKPSEGPGTKYLKSNSRSQQNRHSFMESSQSKAGTLQPNEKQSRHSYIDTIPQSSRSPSYRTKAKSHGALSDSKSVSNLSEARAQIAEPSTSRYFPSSCLDLNSPTSPTPTRHSDTRTLLSPSGRNNRNEGTLDSRRTTTRHSKTMEELKLPEHMDSSHSHSLSAPHESFSYGLGYTSPFSSQQRPHRHSMYVTRDKVRAKGLDGSLSIGQGMAARANSLQLLSPQPGEQLPPEMTVARSSVKETSREGTSSFHTRQKSEGGVYHDPHSDDGTAPKENRHLYNDPVPRRVGSFYRVPSPRPDNSFHENNVSTRVSSLPSESSSGTNHSKRQPAFDPWKSPENISHSEQLKEKEKQGFFRSMKKKKKKSQTTDSTNGENPSIKKSLFPLFNSKNHLKHSSSLKKLPVVTPPMVPNSDSPDLLTLQKSIHSASTPSSRPKEWRPEKISDLQTQSQPLKSLRKLLHLSSASNHPASSDPRFQPLTAQQTKNSFSEIRIHPLSQASGGSSNIRQEPAPKGRPALQLPGQMDPGWHVSSVTRSATEGPSYSEQLGAKSGPNGHPYNRTNRSRMPNLNDLKETAL
Turning to B1, the “EB2 phosphorylation levels (Western blot, Cdkl5-ko mouse brain)” value (“EB2 phosphorylation levels” below) is given as “by isoforms three or 4 slightly lower compared to isoform 1”.

B2: human CDKL5, isoform 2 (protein)
chain: MKIPNIGNVMNKFEILGVVGEGAYGVVLKCRHKETHEIVAIKKFKDSEENEEVKETTLRELKMLRTLKQENIVELKEAFRRRGKLYLVFEYVEKNMLELLEEMPNGVPPEKVKSYIYQLIKAIHWCHKNDIVHRDIKPENLLISHNDVLKLCDFGFARNLSEGNNANYTEYVATRWYRSPELLLGAPYGKSVDMWSVGCILGELSDGQPLFPGESEIDQLFTIQKVLGPLPSEQMKLFYSNPRFHGLRFPAVNHPQSLERRYLGILNSVLLDLMKNLLKLDPADRYLTEQCLNHPTFQTQRLLDRSPSRSAKRKPYHVESSTLSNRNQAGKSTALQSHHRSNSKDIQNLSVGLPRADEGLPANESFLNGNLAGASLSPLHTKTYQASSQPGSTSKDLTNNNIPHLLSPKEAKSKTEFDFNIDPKPSEGPGTKYLKSNSRSQQNRHSFMESSQSKAGTLQPNEKQSRHSYIDTIPQSSRSPSYRTKAKSHGALSDSKSVSNLSEARAQIAEPSTSRYFPSSCLDLNSPTSPTPTRHSDTRTLLSPSGRNNRNEGTLDSRRTTTRHSKTMEELKLPEHMDSSHSHSLSAPHESFSYGLGYTSPFSSQQRPHRHSMYVTRDKVRAKGLDGSLSIGQGMAARANSLQLLSPQPGEQLPPEMTVARSSVKETSREGTSSFHTRQKSEGGVYHDPHSDDGTAPKENRHLYNDPVPRRVGSFYRVPSPRPDNSFHENNVSTRVSSLPSESSSGTNHSKRQPAFDPWKSPENISHSEQLKEKEKQGFFRSMKKKKKKSQTTDSTNGENPSIKKSLFPLFNSKNHLKHSSSLKKLPVVTPPMVPNSDSPDLLTLQKSIHSASTPSSRPKEWRPEKISDLQTQSQPLKSLRKLLHLSSASNHPASSDPRFQPLTAQQTKNSFSEIRIHPLSQASGGSSNIRQEPAPKGRPALQLPGQMDPGWHVSSVTRSATEGPSYSEQLGAKSGPNGHPYNRTNRSRMPNLNDLKETAL
In the case of B2, the “EB2 phosphorylation levels” value was “EB2 phosphorylation levels generated by isoform 2 were slightly higher ... compared to isoform 1”.

B3: human CDKL5, isoform 3 (protein)
chain: MKIPNIGNVMNKFEILGVVGEGAYGVVLKCRHKETHEIVAIKKFKDSEENEEVKETTLRELKMLRTLKQENIVELKEAFRRRGKLYLVFEYVEKNMLELLEEMPNGVPPEKVKSYIYQLIKAIHWCHKNDIVHRDIKPENLLISHNDVLKLCDFGFARNLSEGNNANYTEYVATRWYRSPELLLGAPYGKSVDMWSVGCILGELSDGQPLFPGESEIDQLFTIQKVLGPLPSEQMKLFYSNPRFHGLRFPAVNHPQSLERRYLGILNSVLLDLMKNLLKLDPADRYLTEQCLNHPTFQTQRLLDRSPSRNQAGKSTALQSHHRSNSKDIQNLSVGLPRADEGLPANESFLNGNLAGASLSPLHTKTYQASSQPGSTSKDLTNNNIPHLLSPKEAKSKTEFDFNIDPKPSEGPGTKYLKSNSRSQQNRHSFMESSQSKAGTLQPNEKQSRHSYIDTIPQSSRSPSYRTKAKSHGALSDSKSVSNLSEARAQIAEPSTSRYFPSSCLDLNSPTSPTPTRHSDTRTLLSPSGRNNRNEGTLDSRRTTTRHSKTMEELKLPEHMDSSHSHSLSAPHESFSYGLGYTSPFSSQQRPHRHSMYVTRDKVRAKGLDGSLSIGQGMAARANSLQLLSPQPGEQLPPEMTVARSSVKETSREGTSSFHTRQKSEGGVYHDPHSDDGTAPKENRHLYNDPVPRRVGSFYRVPSPRPDNSFHENNVSTRVSSLPSESSSGTNHSKRQPAFDPWKSPENISHSEQLKEKEKQGFFRSMKKKKKKSQTVPNSDSPDLLTLQKSIHSASTPSSRPKEWRPEKISDLQTQSQPLKSLRKLLHLSSASNHPASSDPRFQPLTAQQTKNSFSEIRIHPLSQASGGSSNIRQEPAPKGRPALQLPGQMDPGWHVSSVTRSATEGPSYSEQLGAKSGPNGHPYNRTNRSRMPNLNDLKETAL
On to B3, for which the “EB2 phosphorylation levels” value is “by isoforms three or 4 slightly lower compared to isoform 1”.

B4: human cyclin-dependent kinase-like 5 (CDKL5), isoform 1 (protein)
chain: MKIPNIGNVMNKFEILGVVGEGAYGVVLKCRHKETHEIVAIKKFKDSEENEEVKETTLRELKMLRTLKQENIVELKEAFRRRGKLYLVFEYVEKNMLELLEEMPNGVPPEKVKSYIYQLIKAIHWCHKNDIVHRDIKPENLLISHNDVLKLCDFGFARNLSEGNNANYTEYVATRWYRSPELLLGAPYGKSVDMWSVGCILGELSDGQPLFPGESEIDQLFTIQKVLGPLPSEQMKLFYSNPRFHGLRFPAVNHPQSLERRYLGILNSVLLDLMKNLLKLDPADRYLTEQCLNHPTFQTQRLLDRSPSRSAKRKPYHVESSTLSNRNQAGKSTALQSHHRSNSKDIQNLSVGLPRADEGLPANESFLNGNLAGASLSPLHTKTYQASSQPGSTSKDLTNNNIPHLLSPKEAKSKTEFDFNIDPKPSEGPGTKYLKSNSRSQQNRHSFMESSQSKAGTLQPNEKQSRHSYIDTIPQSSRSPSYRTKAKSHGALSDSKSVSNLSEARAQIAEPSTSRYFPSSCLDLNSPTSPTPTRHSDTRTLLSPSGRNNRNEGTLDSRRTTTRHSKTMEELKLPEHMDSSHSHSLSAPHESFSYGLGYTSPFSSQQRPHRHSMYVTRDKVRAKGLDGSLSIGQGMAARANSLQLLSPQPGEQLPPEMTVARSSVKETSREGTSSFHTRQKSEGGVYHDPHSDDGTAPKENRHLYNDPVPRRVGSFYRVPSPRPDNSFHENNVSTRVSSLPSESSSGTNHSKRQPAFDPWKSPENISHSEQLKEKEKQGFFRSMKKKKKKSQTVPNSDSPDLLTLQKSIHSASTPSSRPKEWRPEKISDLQTQSQPLKSLRKLLHLSSASNHPASSDPRFQPLTAQQTKNSFSEIRIHPLSQASGGSSNIRQEPAPKGRPALQLPGQMDPGWHVSSVTRSATEGPSYSEQLGAKSGPNGHPYNRTNRSRMPNLNDLKETAL
With B4, the “EB2 phosphorylation (Cdkl5(D471fs) mouse brain)” value was “showed robust hCDKL5 protein expression and EB2 phosphorylation 3 months later”; the “EB2 phosphorylation (Cdkl5(R59X) mouse brain)” value was “showed robust hCDKL5 protein expression and EB2 phosphorylation 3 months later”; the “ability to phosphorylate EB2 (pS222 EB2 Western blot, mouse brain)” value is given as “CDKL5 was fully active, as determined by its ability to phosphorylate its endogenous target EB2 protein”; the “kinase activity, blotting for phosphorylated EB2 (Cdkl5-ko mouse brain, 3 months after AAV)” value was “human CDKL5 showed robust kinase activity when blotting for phosphorylated EB2 protein”. The “substrate phosphorylation by CDKL5 (phospho-EB2 levels, pS222/total EB2, Western blot, brain)” value is on record as “the observed reduction in substrate phosphorylation by CDKL5 (as determined by phospho-EB2 levels) ... was restored to wild type levels”.
